Article PMC10352136 (2023)

Experiments:
[1] = biological target: T1, SNX1-BT*:SNX5-BT* heterodimer (human, UniProt Q13596 1-522; Q9Y5X3 1-404); test: ITC
[2] = biological target: T2, SNX1-SAH^3A:SNX5-SAH^3A heterodimer (human, UniProt Q13596 1-522; Q9Y5X3 1-404); test: ITC
[3] = biological target: T1, SNX1-BT*:SNX5-BT* heterodimer; test: ITC; representative single experiment
[4] = biological target: T2, SNX1-SAH^3A:SNX5-SAH^3A heterodimer; test: ITC; representative single experiment

T2 sequence (Q13596 whole entry, chain 1 of 2): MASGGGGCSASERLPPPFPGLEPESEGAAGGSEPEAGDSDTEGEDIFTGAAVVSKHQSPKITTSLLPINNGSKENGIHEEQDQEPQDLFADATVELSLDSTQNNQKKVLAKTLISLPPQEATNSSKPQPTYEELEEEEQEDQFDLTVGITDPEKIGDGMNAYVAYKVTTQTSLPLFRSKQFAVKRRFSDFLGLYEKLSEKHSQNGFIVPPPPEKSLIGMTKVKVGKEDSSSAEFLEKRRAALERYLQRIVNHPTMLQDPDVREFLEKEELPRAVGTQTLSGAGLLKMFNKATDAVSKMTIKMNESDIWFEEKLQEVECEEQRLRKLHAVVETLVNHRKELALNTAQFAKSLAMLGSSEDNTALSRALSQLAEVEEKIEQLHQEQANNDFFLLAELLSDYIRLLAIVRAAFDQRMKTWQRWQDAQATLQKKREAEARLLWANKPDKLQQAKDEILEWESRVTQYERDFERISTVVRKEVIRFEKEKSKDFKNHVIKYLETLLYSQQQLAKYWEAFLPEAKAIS
T2 sequence (Q9Y5X3 whole entry, chain 2 of 2): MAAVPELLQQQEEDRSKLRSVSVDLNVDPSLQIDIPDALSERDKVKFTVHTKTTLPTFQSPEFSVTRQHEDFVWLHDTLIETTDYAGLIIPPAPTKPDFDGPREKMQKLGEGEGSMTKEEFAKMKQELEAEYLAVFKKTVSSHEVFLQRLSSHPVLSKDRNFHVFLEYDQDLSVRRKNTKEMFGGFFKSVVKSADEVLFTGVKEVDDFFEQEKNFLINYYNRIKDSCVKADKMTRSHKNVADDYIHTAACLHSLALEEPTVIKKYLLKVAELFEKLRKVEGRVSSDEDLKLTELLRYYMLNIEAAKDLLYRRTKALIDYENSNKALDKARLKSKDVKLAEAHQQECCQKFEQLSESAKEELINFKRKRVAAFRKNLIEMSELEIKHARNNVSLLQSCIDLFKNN
T1 sequence (Q13596 whole entry, chain 1 of 2): as the sequence (Q13596 whole entry, chain 1 of 2) above
T1 sequence (Q9Y5X3 whole entry, chain 2 of 2): as the sequence (Q9Y5X3 whole entry, chain 2 of 2) above

B1: CI-MPR_(2347–2375) peptide (bipartite sorting motif of the cation-independent mannose-6-phosphate receptor tail) (peptide)
peptide: SNVSYKYSKVNKEEETDENETEWLMEEIQ
[1]
  Kd: 10.4 µM
[2]
  Kd: 5.06 µM
[3]
  Kd: 9.96 µM
[4]
  Kd: 4.64 µM
